Laboratory results: the supplement of paper PMC9876800

Tested on: peptide library, one residue held at a place counted from the S/T acceptor
Assay: relative phosphorylation of the sub-library (ratio to the mean residue at this position); higher = residue favoured
Method in brief: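 Purified recombinant kinases, either human or orthologue constructs, were incubated in 384-well plates with biotinylated degenerate peptide sub-libraries. Each sub-library fixed one residue at one position around a central Ser/Thr. Peptides at 50 μM and 50 μM ATP spiked with γ-32P-ATP were used for 90 min under kinase-specific conditions, and spots on streptavidin membranes were phosphorimaged and quantified by densitometry. Relative sub-library phosphorylation is expressed as a ratio to the mean residue at that position.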

Sequence of CDK19, construct: Full length, human (Q9BWU1 whole entry, looked up): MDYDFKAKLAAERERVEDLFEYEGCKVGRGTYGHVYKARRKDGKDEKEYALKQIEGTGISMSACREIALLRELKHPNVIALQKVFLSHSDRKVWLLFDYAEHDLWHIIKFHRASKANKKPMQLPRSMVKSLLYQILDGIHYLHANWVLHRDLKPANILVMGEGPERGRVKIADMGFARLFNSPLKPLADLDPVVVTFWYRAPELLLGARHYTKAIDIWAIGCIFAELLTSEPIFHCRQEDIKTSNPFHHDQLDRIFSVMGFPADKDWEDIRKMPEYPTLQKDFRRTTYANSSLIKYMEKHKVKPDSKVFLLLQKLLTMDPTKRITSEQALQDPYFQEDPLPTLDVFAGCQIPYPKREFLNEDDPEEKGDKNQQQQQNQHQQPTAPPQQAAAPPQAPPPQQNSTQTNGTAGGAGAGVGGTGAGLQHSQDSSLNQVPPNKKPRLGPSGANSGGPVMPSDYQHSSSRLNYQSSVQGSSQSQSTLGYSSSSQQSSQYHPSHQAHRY

CDK19, construct: Full length, human (from UniProt Q9BWU1)
relative phosphorylation
Conditions	at +1	at +2	at +3	at +4	at -1	at -2	at -3	at -4	at -5
A fixed	0.247	1.28	1.17	0.978	1.14	1.69	1.08	1.05	0.905
D fixed	0.112	0.577	0.659	1.05	0.698	0.518	0.695	0.93	1.26
E fixed	0.114	0.592	0.564	0.915	0.416	0.463	0.881	1.1	1.23
F fixed	0.193	0.915	0.784	0.971	0.947	0.465	1.18	1.22	1.42
G fixed	0.865	1.39	1.39	1.15	1.64	0.829	1.27	1.07	1.02
H fixed	0.295	1.02	1.1	0.988	0.929	0.589	0.958	0.997	1.11
I fixed	0.378	0.721	0.633	0.857	0.238	0.935	0.602	1.01	0.863
K fixed	0.198	1.08	0.651	0.736	0.93	0.276	0.61	0.73	0.702
L fixed	0.271	1.09	0.685	0.948	0.948	1.09	0.67	1.04	0.878
M fixed	0.32	1.22	1.1	1.1	1.5	0.922	1.39	1.07	0.895
N fixed	0.371	0.959	1.33	1.02	0.918	0.658	1.26	0.741	0.879
P fixed	11.8	0.913	2.42	1.28	1.61	5.16	1.39	0.878	0.771
Q fixed	0.314	1.1	0.892	1.01	1	0.846	1.16	0.881	0.801
R fixed	0.186	1.51	0.934	0.919	1.53	0.393	0.674	0.875	0.844
V fixed	0.92	0.725	0.903	0.945	0.425	1.25	0.583	0.786	0.685
W fixed	0.248	1	0.881	1.24	1.01	0.498	1.45	1.34	1.08
Y fixed	0.196	0.925	0.918	0.888	1.11	0.423	1.15	1.28	1.65
pThr fixed	0.381	0.481	0.581	0.829	0.318	0.651	0.695	0.915	0.914
pTyr fixed	0.344	0.83	0.733	0.902	0.505	0.427	0.718	1.03	1.12
